# Laboratory results taken from US20250043302A1, “MUTATED HYDROXYPHENYLPYRUVATE DIOXYGENASE POLYPEPTIDE, AND CODING GENE AND USE THEREOF” (BEIJING DABEINONG BIOTECHNOLOGY CO., LTD., priority 2021, published 2025).
# Key:
# [1] = test system: Arabidopsis thaliana T1 plants; test: Isoxaflutole tolerance of transgenic Arabidopsis thaliana T1 plants (spray, bleached leaf area grade, damage score); assay type: in vivo; conditions: for Classification and statistics of the grade of pesticide damage: Grade 0 / Classification and statistics of the grade of pesticide damage: Grade 1 / Classification and statistics of the grade of pesticide damage: Grade 2 / Classification and statistics of the grade of pesticide damage: Grade 3: number of plants;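 on Scores: Weighted damage index from 0 to 100 where higher means more damage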
# Procedure, shortened: (§1)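 T1 transformants selected by glufosinate; 18-day-old plants, with empty-vector and wild-type controls, sprayed with topramezone (25–200 g ai/ha), isoxaflutole (35–280 g ai/ha) or mesotrione (52.5–420 g ai/ha), water as 0×. Bleached leaf area fraction scored at 7 DAT as grades 0–3.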
# [2] = test system: Arabidopsis thaliana T1 plants; test: Mesotrione tolerance of transgenic Arabidopsis thaliana T1 plants (spray, bleached leaf area grade, damage score); assay type: in vivo; parameters: Scores: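 damage score 0-100 computed as Σ(N×S)/(T×M)×100 over grades 0-3 with higher meaning more damage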; conditions: for Resistance evaluation / Classification and statistics of the grade of pesticide damage: Grade 0 / Classification and statistics of the grade of pesticide damage: Grade 1 / Classification and statistics of the grade of pesticide damage: Grade 2 / Classification and statistics of the grade of pesticide damage: Grade 3 / Scores: 7 DAT, Table 3; for Classification and statistics of the grade of pesticide damage: Grade 0 / Classification and statistics of the grade of pesticide damage: Grade 1 / Classification and statistics of the grade of pesticide damage: Grade 2 / Classification and statistics of the grade of pesticide damage: Grade 3: number of plants; for Scores: pesticide damage score 0-100
# Procedure, shortened: as §1
# [3] = isoxaflutole 280 g ai/ha (4x field concentration), Arabidopsis thaliana T1 plants
# [4] = isoxaflutole 280 g ai/ha (4x field concentration), Arabidopsis thaliana T1 plants, 16 plants
# [5] = isoxaflutole 280 g ai/ha (4×), 7 DAT, Table 2
# [6] = isoxaflutole 140 g ai/ha (2×), 7 DAT, Table 2
# [7] = mesotrione 210 g ai/ha (two-fold field concentration)
molecule,measurement,setting,value
"AsHPPDm-F383W-02: nucleotide sequence encoding Avena sativa HPPD with F383W; vector DBN11729 (nucleic acid, AsHPPDm-F383W-02 Nucleotide Sequence, vector DBN11729) DNA: ATGCCACCTACTCCAGCTACAGCTACTGGTGCTGCTGCTGCTGCCGTTACTCCTGAGCACGCTGCCAGGTCATTCCCCAGGGTGGTTCGCGTGAACCCCAGATCTGATAGGTTCCCAGTTCTGAGCTTCCACCATGTTGAGCTGTGGTGCGCTGATGCTGCTTCTGCTGCTGGCAGGTTCTCTTTCGCTCTTGGTGCTCCACTCGCTGCTAGATCTGATCTGTCTACAGGAAATAGCGCTCATGCCTCACTCCTGCTTCGCTCAGGTGCTTTGGCCTTCCTCTTCACCGCTCCATATGCTCCCCCACCTCAGGAGGCTGCTACTGCTGCTGCTACAGCCTCCATTCCAAGCTTCTCAGCTGATGCCGCTAGAACCTTCGCTGCTGCTCATGGACTTGCCGTGAGGTCTGTTGGTGTTCGCGTGGCTGATGCTGCTGAGGCTTTCAGAGTTTCCGTTGCCGGCGGAGCTAGGCCAGCTTTCGCTCCTGCTGATTTGGGACATGGTTTCGGCCTGGCTGAGGTTGAGCTTTACGGTGACGTGGTTCTCCGCTTCGTGTCTTACCCAGATGAGACTGACCTGCCTTTCCTTCCCGGCTTCGAGAGAGTTTCCTCTCCTGGTGCCGTGGATTACGGCCTGACAAGGTTCGACCACGTGGTTGGAAACGTTCCCGAGATGGCTCCAGTGATCGATTACATGAAGGGCTTCCTTGGATTCCATGAGTTCGCCGAGTTCACTGCTGAGGACGTGGGAACCACTGAGTCCGGTTTGAACTCTGTGGTTCTCGCCAACAATTCTGAGGCTGTTTTGCTCCCTCTGAATGAGCCTGTGCATGGAACCAAGAGGAGAAGCCAGATTCAAACTTACCTGGAGTACCACGGTGGCCCTGGAGTTCAGCATATCGCCCTTGCTTCTAATGATGTGTTGCGCACACTCAGAGAGATGCGCGCCAGAACCCCCATGGGAGGTTTCGAGTTCATGGCCCCACCACAGGCTAAGTACTACGAGGGCGTTAGAAGGATTGCTGGAGACGTGTTGAGCGAGGAGCAGATCAAGGAGTGCCAAGAGCTGGGTGTTCTTGTGGATAGGGATGACCAGGGCGTTCTGCTTCAAATTTTCACTAAGCCAGTGGGCGACCGCCCTACATTCTGGCTTGAGATGATTCAAAGAATCGGCTGCATGGAGAAGGATGAGGTTGGACAGGAGTACCAAAAGGGCGGATGCGGTGGCTTCGGAAAGGGTAACTTCAGCGAGTTGTTCAAGTCAATCGAGGACTACGAGAAGAGCCTCGAGGTGAAGCAGTCAGTGGTTGCCCAAAAGTCCTGA",Resistance evaluation,[1]; [3],Poorly resistant
same,Scores,[1]; [3],42
same,Grade 0 (classification and statistics of the grade of pesticide damage; number of plants),[1]; [4],4
same,Grade 1 (classification and statistics of the grade of pesticide damage; number of plants),[1]; [4],4
same,Grade 2 (classification and statistics of the grade of pesticide damage; number of plants),[1]; [4],8
same,Grade 3 (classification and statistics of the grade of pesticide damage; number of plants),[1]; [4],0
same,Resistance evaluation,[1]; [5],poorly resistant (poorly resistant plants (scores 34-67))
same,tolerance to isoxaflutole (resistance class),[1]; isoxaflutole at four-fold field concentration,poorly-resistant
same,tolerance to isoxaflutole (resistance class),[1]; isoxaflutole at two-fold field concentration,moderately-resistant
same,Classification and statistics of the grade of pesticide damage: Grade 0,[1]; [6],6
same,Classification and statistics of the grade of pesticide damage: Grade 1,[1]; [6],10
same,Classification and statistics of the grade of pesticide damage: Grade 2,[1]; [6],0
same,Classification and statistics of the grade of pesticide damage: Grade 3,[1]; [6],0
same,Classification and statistics of the grade of pesticide damage: Grade 0,[1]; [5],4
same,Classification and statistics of the grade of pesticide damage: Grade 1,[1]; [5],4
same,Classification and statistics of the grade of pesticide damage: Grade 2,[1]; [5],8
same,Classification and statistics of the grade of pesticide damage: Grade 3,[1]; [5],0
same,Scores,"[1]; pesticide damage score 0-100, isoxaflutole 140 g ai/ha (2×), 7 DAT, Table 2",21
same,Scores,"[1]; pesticide damage score 0-100, isoxaflutole 280 g ai/ha (4×), 7 DAT, Table 2",42
same,tolerance to mesotrione (in words),[2]; in vivo,different degrees of tolerance
same,Resistance evaluation,[2]; [7],moderately
same,Resistance evaluation,[2]; mesotrione 420 g ai/ha (4×),poorly resistant (poorly resistant plants (scores 34-67))
same,tolerance to mesotrione (resistance class),[2]; mesotrione at four-fold field concentration,poorly-resistant
same,tolerance to mesotrione (resistance class),[2]; mesotrione at two-fold field concentration,moderately-resistant
same,Classification and statistics of the grade of pesticide damage: Grade 0,[2]; [7],4
same,Classification and statistics of the grade of pesticide damage: Grade 1,[2]; [7],10
same,Classification and statistics of the grade of pesticide damage: Grade 2,[2]; [7],1
same,Classification and statistics of the grade of pesticide damage: Grade 3,[2]; [7],1
same,Classification and statistics of the grade of pesticide damage: Grade 0,[2]; mesotrione 420 g ai/ha (4×),0
same,Classification and statistics of the grade of pesticide damage: Grade 1,[2]; mesotrione 420 g ai/ha (4×),2
same,Classification and statistics of the grade of pesticide damage: Grade 2,[2]; mesotrione 420 g ai/ha (4×),14
same,Classification and statistics of the grade of pesticide damage: Grade 3,[2]; mesotrione 420 g ai/ha (4×),0
same,Scores,[2]; [7],31
same,Scores,[2]; mesotrione 420 g ai/ha (4×),63
